We go through four molecules from patent US20200216515A1 (CELLECTIS, published 2020).

In this test the target is T1, CLL-1 (UniProt Q5QGZ9 65-265, limits assumed).
T1 sequence (looked up): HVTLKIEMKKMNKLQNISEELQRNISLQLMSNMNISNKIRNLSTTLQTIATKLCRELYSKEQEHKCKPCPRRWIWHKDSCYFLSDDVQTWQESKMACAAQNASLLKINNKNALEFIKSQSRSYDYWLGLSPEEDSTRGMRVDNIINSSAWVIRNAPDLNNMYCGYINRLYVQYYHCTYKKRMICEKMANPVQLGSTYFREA
As to the kind of experiment: method not stated (Table 2, affinity of antibodies for CLL-1).

As usually defined, the Kd is the equilibrium constant for the complex coming apart. Low readings indicate higher affinity, high ones lower affinity.

B1: M22 (antibody, V domains shown)
VH: QVQLQQPGAELVKPGASVKLSCKASGYTFTRYWMHWVKQRPGQGLEWIGNIDPSDTETHYNQQFKDKATLTVDKSSSTAYMQLSSLTSEDSAVYYCAIYYGNPSYYAMDYWGQGTSVTVSS
VL: DIVMTQSPSSLTVTAGEKVTMSCKSSQNLLNSGNQKKYLNWYQQKPGQPPKLLIYWASTRESGVPDRFTGSGSGTDFTLTISSVQAEDLAVYFCQNDYSYPFTFGAGTKLELK
B1 gave a Kd of 388 pM.

B2: G12 (antibody, V domains shown)
VH: QVQLQQPGAELVKPGASMKMSCKASGYTFPSSNIHWLKQTPGQGLEWIGVIYPGNGDTSYNQKFKDKATLTTDKSSSTAYMQLSSLTSEDSAIYFCARVYNWHFDVWGAGTTVTVSS
VL: NIVLTQSPASLAVSLGQRATISCRASESVDGYGDIFMLWYQQKPGQPPKLLIYFASNLESGVPARFSGSGSRTDFTLTIDPVEADDAATYYCQQNNEDPYTFGGGTKLEIK
Take B2: the Kd worked out at 70 pM.

B3: M29 (antibody, V domains shown)
VH: EVQLQQSGPELVKPGASVKMSCKASGYIFTSYVMYWVKQKPGQGLEWIGYINPYNDGTKYNEKFKGKATLTSDKSSSTAYMELSSLTSEDSAVYYCARYYDYDYYFDYWGQGTTLTVSS
VL: DIQMTQSPSSLSASLGGKVTITCKASQDINKYIAWYQHKPGKGPRLLIHYTSTLQPGIPSRFSGSGSGRDYSFSISNLEPEDIATYYCLQYDYLWTFGGGTKLEIK
B3: the Kd was 1480 pM.

B4: M26 (antibody, V domains shown)
VH: EVQLQQSGPELVKPGASVKMSCKASGYTFTSYFIHWVKQKPGQGLEWIGFINPYNDGSKYNEKFKGKATLTSDKSSSTAYMELSSLTSEDSAVYYCTRDDGYYGYAMDYWGQGTLVTVSS
VL: DIQMTQSPSSLSASLGERVSLTCRATQELSGYLSWLQQKPDGTIKRLIYAASTLDSGVPKRFSGNRSGSDYSLTISSLESEDFADYYCLQYAIYPYTFGGGTKLEIK
The molecule B4 returned a Kd of 214 pM.
